Consider two substances from patent publication US7037666B2, “Methods for identifying modulators of the interaction between lap (latency associated peptide) and intergrin αvβ3 and medical use thereof” (SmithKline Beecham Corporation, priority 2000, dated 2006).

Type in all cases: cell-based
One test addresses T1, αvβ5 integrin (Homo sapiens, UniProt P06756+P18084).
T1 construct: expressed in transfected cells; host or cells: K562
The test can be described thus: Adhesion of K562-αvβ5 cells to LAP-β1 coated wells. Conditions: coated at 10 μg/ml, 2 mM MgCl2. On the procedure:
(§1) Cells were allowed to attach to wells coated with LAP-β1 at 10 μg/ml. Cells were incubated for 35 minutes at 37° C. in HBSS supplemented with 25 mM HEPES pH 7.5, and either 0.5 mM MnCl2 (K562-WT, HL60, K562-αvβ6) or 2 mM MgCl2 (K562-αvβ3, K562-αvβ5). Each bar represents the mean±SD of duplicated points.
(§2) K562-WT (wild-type), K562-αvβ6, K562-αvβ5, K562-αvβ3, and HL60 cells were maintained in 1:1 RPMI 1640, Hepes modification (Gibco): Dulbecco's Minimum Essential Medium (DMEM), Hepes modification (Sigma) supplemented with L-glutamine (Gibco) and 10% fetal calf serum (FCS). In addition K562-αvβ3, K562-αvβ5, and K562-αvβ6 cells were supplemented with geneticin (G418, Gibco) at 1 mg/ml. All transfected cells were generated by transfecting K562 cells with pCDNA-3 constructs containing individual integrin cDNAs, using lipofectamine plus (Gibco BRL).
(§3) All proteins were coated onto Maxisorp 96-well plates (Nunclon) overnight at 4° C. Each protein was diluted in PBS at the concentrations indicated, and a total volume of 100 ul added per well. Plates were washed twice in PBS then blocked with 3% BSA/PBS for 1 hour at 37° C., and finally washed twice in PBS. […] For quantitation cells were visualised by staining with 0.1% crystal violet (Sigma) for 10 minutes then lysed in 0.5% Triton X-100 (Sigma) and read optically at 570 nm in a Wallac Victor plate reader.

Test [1] addresses T2, αvβ3 integrin (Homo sapiens, UniProt P05106+P06756).
T2 construct: expressed in transfected cells; host or cells: K562
In words: Adhesion of K562-αvβ3 cells to LAP-β1 coated wells. To be noted: coated at 10 μg/ml, 2 mM MgCl2.
Description: Cells were allowed to attach to wells coated with quantities of LAP-β1 indicated. […] The buffer used was HBSS supplemented with 25 mM HEPES pH 7.5, and 2 mM MgCl2. Each data point represents the mean±SD of duplicated samples.
The buffer used was HBSS supplemented with 25 mM HEPES pH 7.5, and 2 mM MgCl2. Adhesion to each ligand in the absence of compound was taken as a 100% binding value, with adhesion to BSA alone as a 0% binding value. The 100% binding values corresponded to the following absorbances at 570 nm: Fibrinogen=0.8, Vitronectin=0.9, LAP-β1=0.9. Each data point represents the mean±SD of duplicated samples. […]

For a further test, the system named is K562-WT cells. In words: Adhesion of K562-WT cells to LAP-β1 coated wells. Conditions: coated at 10 μg/ml, 0.5 mM MnCl2. On the procedure: as §1, §2, §3
A further test deals with HL60 cells. The test can be described thus: Adhesion of HL60 cells to LAP-β1 coated wells. Conditions: coated at 10 μg/ml, 0.5 mM MnCl2. On the procedure: as §1, §2, §3
A further test concerns the target T3, αvβ6 integrin (Homo sapiens, UniProt P06756+P18564).
T3 construct: expressed in transfected cells; host or cells: K562
In words: Adhesion of K562-αvβ6 cells to LAP-β1 coated wells. Conditions: coated at 10 μg/ml, 0.5 mM MnCl2. On the procedure:
as §1
Cells were allowed to attach to wells coated with LAP-β1 at 10 μg/ml. Cells were incubated for 5 minutes on ice, then for 35 minutes at 37° C., in the presence of antibodies at 10 μg/ml as indicated. The buffer used was HBSS supplemented with 25 mM HEPES pH 7.5, and 2 mM MgCl2. Each bar represents the mean±SD of duplicated samples.
K562-WT (wild-type), K562-αvβ6, K562-αvβ5, K562-αvβ3, and HL60 cells were maintained in 1:1 RPMI 1640, Hepes modification (Gibco): Dulbecco's Minimum Essential Medium (DMEM), Hepes modification (Sigma) supplemented with L-glutamine (Gibco) and 10% fetal calf serum (FCS). In addition K562-αvβ3, K562-αvβ5, and K562-αvβ6 cells were supplemented with geneticin (G418, Gibco) at 1 mg/ml. […]
All proteins were coated onto Maxisorp 96-well plates (Nunclon) overnight at 4° C. […] For quantitation cells were visualised by staining with 0.1% crystal violet (Sigma) for 10 minutes then lysed in 0.5% Triton X-100 (Sigma) and read optically at 570 nm in a Wallac Victor plate reader.

Test [2] addresses T2, αvβ3 integrin. In words: Adhesion of K562-αvβ3 cells to GST-LAPβ1 (amino acids 242–252) coated wells. Conditions: matrix titration or 0.5 μg coated, 2 mM MgCl2.
Description: All proteins were coated onto Maxisorp 96-well plates (Nunclon) overnight at 4° C. Each protein was diluted in PBS at the concentrations indicated, and a total volume of 100 ul added per well. Plates were washed twice in PBS then blocked with 3% BSA/PBS for 1 hour at 37° C., and finally washed twice in PBS. Cells were pelleted and washed once in HBSS (Sigma) then spread in HBSS, 25 mM HEPES pH 7.5 at the desired cell concentration (K562-WT, K562-αvβ6, HL60 at 6×10^6 cells/ml, K562-αvβ5, K562-αvβ3 at 4×10^6 cells/ml, 100 ul per well), in the presence of either 2 mM MgCl2 or 0.5 mM MnCl2 as indicated in the figure legends. […] For antibody inhibition cells were pre-incubated with the antibody (10 μg/ml) on ice for 5 minutes. Cells were then allowed to attach for 35 minutes at 37° C., washed twice with PBS, once in ethanol, and fixed in ethanol for 20 minutes at room temperature. For quantitation cells were visualised by staining with 0.1% crystal violet (Sigma) for 10 minutes then lysed in 0.5% Triton X-100 (Sigma) and read optically at 570 nm in a Wallac Victor plate reader.

Ends that are not written are not given here.

T2 sequence (P06756 31-889 limits assumed): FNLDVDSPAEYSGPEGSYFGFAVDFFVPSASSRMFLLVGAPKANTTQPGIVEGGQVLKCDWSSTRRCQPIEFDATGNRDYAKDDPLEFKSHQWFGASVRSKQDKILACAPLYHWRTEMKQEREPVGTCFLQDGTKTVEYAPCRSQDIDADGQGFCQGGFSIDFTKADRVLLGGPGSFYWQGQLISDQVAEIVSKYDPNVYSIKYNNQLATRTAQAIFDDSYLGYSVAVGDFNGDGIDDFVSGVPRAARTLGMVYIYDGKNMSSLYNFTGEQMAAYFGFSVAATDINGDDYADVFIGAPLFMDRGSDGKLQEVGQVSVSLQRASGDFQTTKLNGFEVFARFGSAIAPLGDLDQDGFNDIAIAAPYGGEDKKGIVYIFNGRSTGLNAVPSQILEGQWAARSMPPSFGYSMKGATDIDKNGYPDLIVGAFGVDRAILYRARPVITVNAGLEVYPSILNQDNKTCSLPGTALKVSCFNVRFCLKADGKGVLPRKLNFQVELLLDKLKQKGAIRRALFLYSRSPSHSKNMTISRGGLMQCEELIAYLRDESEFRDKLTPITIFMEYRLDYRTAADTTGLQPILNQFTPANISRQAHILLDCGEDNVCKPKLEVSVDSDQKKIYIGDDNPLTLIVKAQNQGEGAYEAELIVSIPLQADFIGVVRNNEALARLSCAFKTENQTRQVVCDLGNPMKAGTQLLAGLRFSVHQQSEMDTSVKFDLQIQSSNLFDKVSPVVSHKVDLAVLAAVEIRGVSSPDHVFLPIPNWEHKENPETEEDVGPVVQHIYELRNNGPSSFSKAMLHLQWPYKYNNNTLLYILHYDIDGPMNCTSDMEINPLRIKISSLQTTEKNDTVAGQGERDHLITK
T2 sequence (P06756 891-1048 partner limits assumed): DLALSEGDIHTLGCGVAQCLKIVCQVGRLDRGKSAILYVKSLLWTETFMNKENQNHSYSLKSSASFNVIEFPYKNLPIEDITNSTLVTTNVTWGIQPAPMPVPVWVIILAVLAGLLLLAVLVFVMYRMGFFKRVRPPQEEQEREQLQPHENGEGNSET
T2 sequence (P05106 27-788): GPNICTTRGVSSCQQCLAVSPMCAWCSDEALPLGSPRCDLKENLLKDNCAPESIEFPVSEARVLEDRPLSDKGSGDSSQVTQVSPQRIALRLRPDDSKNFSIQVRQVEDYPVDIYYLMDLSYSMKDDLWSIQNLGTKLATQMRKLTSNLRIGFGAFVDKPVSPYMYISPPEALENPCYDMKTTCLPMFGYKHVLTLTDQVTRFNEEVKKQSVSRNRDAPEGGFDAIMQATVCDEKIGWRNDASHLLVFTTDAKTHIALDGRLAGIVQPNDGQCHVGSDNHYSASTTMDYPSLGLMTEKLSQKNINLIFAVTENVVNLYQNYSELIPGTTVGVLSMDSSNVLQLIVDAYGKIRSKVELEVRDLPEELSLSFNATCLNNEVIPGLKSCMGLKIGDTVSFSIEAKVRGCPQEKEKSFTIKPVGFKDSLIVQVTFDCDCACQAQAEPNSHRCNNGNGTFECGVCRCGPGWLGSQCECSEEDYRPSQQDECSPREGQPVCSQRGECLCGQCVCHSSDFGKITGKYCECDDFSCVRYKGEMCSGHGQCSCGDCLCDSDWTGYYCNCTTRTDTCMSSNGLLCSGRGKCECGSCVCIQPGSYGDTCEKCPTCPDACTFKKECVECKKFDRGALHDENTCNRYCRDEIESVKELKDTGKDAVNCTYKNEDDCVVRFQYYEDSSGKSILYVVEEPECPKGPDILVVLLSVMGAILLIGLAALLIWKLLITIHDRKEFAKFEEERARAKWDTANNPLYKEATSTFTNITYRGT
T3 sequence (P06756 31-889 limits assumed): as the sequence (P06756 31-889 limits assumed) above
T3 sequence (P06756 891-1048 partner limits assumed): as the sequence (P06756 891-1048 partner limits assumed) above
T3 sequence (P18564 22-788): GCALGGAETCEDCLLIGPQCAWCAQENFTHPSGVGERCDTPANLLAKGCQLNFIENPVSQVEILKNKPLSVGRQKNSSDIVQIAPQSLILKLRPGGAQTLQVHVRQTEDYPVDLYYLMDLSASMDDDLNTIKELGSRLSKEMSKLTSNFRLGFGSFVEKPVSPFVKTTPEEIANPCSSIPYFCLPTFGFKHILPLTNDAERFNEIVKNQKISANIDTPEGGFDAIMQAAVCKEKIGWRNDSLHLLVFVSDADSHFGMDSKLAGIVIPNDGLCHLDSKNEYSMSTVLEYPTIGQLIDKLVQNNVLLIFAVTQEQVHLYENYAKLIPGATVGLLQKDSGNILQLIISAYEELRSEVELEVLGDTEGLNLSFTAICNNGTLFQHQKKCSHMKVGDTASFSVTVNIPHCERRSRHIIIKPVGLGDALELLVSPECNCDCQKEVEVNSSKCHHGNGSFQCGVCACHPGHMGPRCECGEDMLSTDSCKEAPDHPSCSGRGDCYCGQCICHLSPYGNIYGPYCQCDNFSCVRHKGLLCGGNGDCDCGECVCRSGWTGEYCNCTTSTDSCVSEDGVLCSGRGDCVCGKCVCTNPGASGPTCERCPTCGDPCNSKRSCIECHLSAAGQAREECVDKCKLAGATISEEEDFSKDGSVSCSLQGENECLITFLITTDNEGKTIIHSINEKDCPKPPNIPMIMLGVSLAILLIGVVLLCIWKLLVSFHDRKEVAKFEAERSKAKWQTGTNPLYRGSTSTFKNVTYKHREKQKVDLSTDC
T1 sequence (P06756 31-889 limits assumed): as the sequence (P06756 31-889 limits assumed) above
T1 sequence (P06756 891-1048 partner limits assumed): as the sequence (P06756 891-1048 partner limits assumed) above
T1 sequence (P18084 24-799): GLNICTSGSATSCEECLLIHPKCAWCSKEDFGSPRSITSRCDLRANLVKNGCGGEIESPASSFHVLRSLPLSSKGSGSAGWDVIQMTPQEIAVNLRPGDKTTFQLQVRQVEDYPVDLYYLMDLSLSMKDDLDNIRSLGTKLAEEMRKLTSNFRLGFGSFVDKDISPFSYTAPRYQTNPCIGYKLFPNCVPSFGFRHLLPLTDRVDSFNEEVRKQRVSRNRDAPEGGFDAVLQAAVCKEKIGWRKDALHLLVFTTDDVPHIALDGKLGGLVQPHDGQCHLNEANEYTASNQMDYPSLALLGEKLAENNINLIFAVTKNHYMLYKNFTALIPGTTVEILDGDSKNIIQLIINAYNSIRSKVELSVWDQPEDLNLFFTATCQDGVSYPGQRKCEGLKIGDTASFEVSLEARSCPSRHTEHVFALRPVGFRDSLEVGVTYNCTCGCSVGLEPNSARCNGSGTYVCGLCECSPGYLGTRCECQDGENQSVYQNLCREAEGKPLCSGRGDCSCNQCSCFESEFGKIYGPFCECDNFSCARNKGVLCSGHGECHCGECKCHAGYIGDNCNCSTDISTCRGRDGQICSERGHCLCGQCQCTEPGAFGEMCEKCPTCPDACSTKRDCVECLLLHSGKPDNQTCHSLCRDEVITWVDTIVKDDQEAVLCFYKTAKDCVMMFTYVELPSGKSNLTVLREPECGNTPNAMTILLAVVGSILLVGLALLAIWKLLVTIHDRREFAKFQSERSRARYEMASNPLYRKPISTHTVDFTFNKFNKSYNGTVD

On to “LAP-β1: latency associated peptide-β1 of TGF-β1, amino acids 30 to 278 of SEQ ID NO: 1, obtained from Sigma”, for which the “Adhesion of K562-αvβ5 cells to the coated protein” value with αvβ5 integrin is listed as “bound slightly”. The “Adhesion of K562-αvβ3 cells to the coated protein” value in the test with αvβ3 integrin [1] was “interacted strongly”. Also, in the test on K562-WT cells, the “Adhesion of K562-WT cells to the coated protein” value is listed as “bound slightly”. For the same substance, the “Adhesion of HL60 cells to the coated protein” value with HL60 cells was “failed to bind”. Further, the “Adhesion of K562-αvβ6 cells to the coated protein” value in the test with αvβ6 integrin is “adhered”.

On to “GST-LAPβ1 (aa242–252): peptide fragment of LAPβ1 (amino acids 242–252, GRRGDLATIHG) containing the RGD motif, expressed as a GST fusion protein in E. coli ({GST}-GRRGDLATIHG; UniProt P01137 242-252, looked up, fragment)”, for which, in the test with αvβ3 integrin [2], the “Ability to support adhesion of K562-αvβ3 cells” value is given as “supported adhesion of K562-αvβ3 cells similarly to intact LAPβ1”.
